Consider 2 molecules from PMC3448598, “A Role for the CAL1-Partner Modulo in Centromere Integrity and Accurate Chromosome Segregation in Drosophila” (PLoS ONE, 2012).

B1: CAL1 (natural protein, Drosophila (endogenous in S2 cells), UniProt Q9VEN2 1-979, looked up)
chain: MANAVVDEETLEAMVYERSKAWSSKMADFASLEDGMEIDVAEFDNLFHGEDEDPDLDDVAKEAVEDNVPDEAKLEMGHINATSVTELTLILCANEDNEAKAEIEEILNQTVPVVEEHKRKWREAGLDRILDTFDEKQIEHHVGRWMRRHNSVYLEASPPKYLPPHHNSISDESDESMHSIDTARYIQQSRRRNAHMTNKNMTTIKMYRKHSHKRDELRAKYAYGDEQEHRHHMQAVLLRRRERERQLAYLASTPMQCVYSSGHHMRRKNLRKRRINSWMFDSASSSEEDTSFGGCDCHSCRRHYALSRSVYQSCPYGRGQREYHHRQMASRTMHTMRRQHTFDMEMDLRPRLPENECSCCNSDRLCSNVIHIANSSTEEWVVENRSNHLTQETQEKTRKQKHQPMDARKVSHQPVCSKGHEQKPLSSKATSVSKLVLSKEKYMQMFDSESSDEDNALAKKGLLCCSDKKKGMTFPTPNAAGKITHPTSSAKKAIRKEARPNGLAQIQEEGPTATNSPIESTYLPVAHMKSVSIDGSSGTSATFESPAKKAPKRGIRETSPLNGNELQQLISTIPIADEKASSLMEKVDNCIGRESFDDRNKDFMHMENSSTKTAVEKSTKQKRVSGKKSEIPKSIITNNEILEKNSTETLSEKQVAAKAKKQSVRKTGATGKPSTSRLKKSEKTKTTSSVTSTSKLEQVREEESDVSSEVLAKPKPQCSTTASILKQGGDGASNSEDDLQIALAMSKATYKEEQQKRKKTKREPSNKQPQSPAEKSMTVFNNQSVACNSTALANDTACYRVLPKRRGVKRAAAVSTTEEKTATNSSSSPTSSLEEMGSPTGGDPDCTVVTSTTGCEPPASERQEIPATIKITKRGILLHSPSAPEGASFTLTEQGLGKIIGERWARKYLKYHIGSRSFDSRHSVYYQPTPQLAAALSAPQDAQNIGNISGSSASDDDIFEQINRYGTVYSILENNSGDK
notes: Chromosome Alignment 1 (CAL1), Drosophila, endogenous in untransfected S2 cells; runs approximately as a 150 KDa protein; also called Chromosome Alignment 1; source: endogenous, Drosophila S2 cells, in nuclear (chromatin) extract
B2: Modulo (natural protein, Drosophila (endogenous in S2 cells), UniProt P13469 1-542, looked up)
chain: MAQKKAVTVKGKKATNGEEKPLAKRVTKSTKVQEEETVVPQSPSKKSRKQPVKEVPQFSEEDESDVEEQNDEQPGDDSDFETEEAAGLIDDEAEEDEEYNSDDEEDDDDDELEPGEVSKSEGADEVDESDDDEEAPVEKPVSKKSEKANSEKSEENRGIPKVKVGKIPLGTPKNQIVFVTNLPNEYLHKDLVALFAKFGRLSALQRFTNLNGNKSVLIAFDTSTGAEAVLQAKPKALTLGDNVLSVSQPRNKEENNERTVVVGLIGPNITKDDLKTFFEKVAPVEAVTISSNRLMPRAFVRLASVDDIPKALKLHSTELFSRFITVRRISQESISRTSELTLVVENVGKHESYSSDALEKIFKKFGDVEEIDVVCSKAVLAFVTFKQSDAATKALAQLDGKTVNKFEWKLHRFERSTSGRAILVTNLTSDATEADLRKVFNDSGEIESIIMLGQKAVVKFKDDEGFCKSFLANESIVNNAPIFIEPNSLLKHRLLKKRLAIGQTRAPRKFQKDTKPNFGKKPFNKRPAQENGGKSFVKRARF
notes: Modulo, Drosophila nucleolar protein, endogenous in S2 cells; runs as a 75 KDa protein; also called nucleolar protein Modulo; Drosophila nucleolin homolog; source: endogenous, Drosophila S2 cells, in chromatin-free extract / nuclear (chromatin) extract

The experiment “Modulo” concerns the target B2. The experiment in a line: co-IP; anti-Modulo antibody coupled to Dynabead Protein-A, 2 h at 4°C, extracts of nuclei from S2 cells; mock IP without antibody; Western blot with anti-CAL1. As to conditions: partners not purified. For orientation: A western blot detects proteins with antibodies after separation by electrophoresis.
The target in the next experiment is T1, FLAG-CAL1 (Drosophila, UniProt Q9VEN2 1-979).
T1 construct: Chromosome Alignment 1 (CAL1), Drosophila; The results say the fusion is expressed under the endogenous CAL1 promoter, the methods say under the pCopia promoter; also called FLAG-tagged CAL1; Chromosome Alignment 1; source: Drosophila S2 cells stably expressing FLAG-CAL1, in chromatin-free extract / nuclear (chromatin) extract; not shown: FLAG, N-terminal, kept
T1 sequence (looked up): B1 chain
The experiment in a line: co-IP; anti-FLAG M2 agarose, 2 h at 4°C, extracts of nuclei from S2 cells stably expressing FLAG-CAL1 and from untagged S2 cells; Western blot with anti-Modulo; quantified with Image J. The note with it: partners not purified.

Turning to B1, the “fold enrichment in the anti-Modulo IP over the mock IP” value with Modulo was found to be 8 fold.

Consider B2, for which the “fold enrichment in the FLAG-CAL1 IP over the IP from untagged S2 cells” value with FLAG-CAL1 was found to be 5 fold.
